Assay results: publication doi:10.1101/2021.01.08.425994 (bioRxiv, 2021)

Target: T1, His-tagged mouse CRY2 D325H PHR domain (residues 1-512) (mouse, UniProt Q9R194 1-512, D325H)
T1 sequence (looked up): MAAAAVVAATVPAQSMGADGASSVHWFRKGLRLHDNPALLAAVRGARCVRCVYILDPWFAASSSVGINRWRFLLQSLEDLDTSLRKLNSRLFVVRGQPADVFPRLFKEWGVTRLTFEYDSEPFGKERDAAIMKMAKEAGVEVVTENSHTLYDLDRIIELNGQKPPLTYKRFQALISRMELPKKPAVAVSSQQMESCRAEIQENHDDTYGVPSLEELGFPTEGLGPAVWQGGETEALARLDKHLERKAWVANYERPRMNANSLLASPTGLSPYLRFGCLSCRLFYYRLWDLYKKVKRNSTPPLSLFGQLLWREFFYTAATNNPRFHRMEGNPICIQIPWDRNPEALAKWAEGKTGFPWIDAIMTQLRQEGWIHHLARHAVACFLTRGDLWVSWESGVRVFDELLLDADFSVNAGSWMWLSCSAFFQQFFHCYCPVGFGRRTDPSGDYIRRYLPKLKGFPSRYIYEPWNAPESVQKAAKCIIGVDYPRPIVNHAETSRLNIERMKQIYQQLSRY
Assay: BLI

B1: CLOCK:BMAL1 PAS domain core (PAS-AB domain heterodimer), biotinylated (complex)
chain 1: ASEIRQDWKPTFLSNEEFTQLMLEALDGFFLAIMTDGSIIYVSESVTSLLEHLPSDLVDQSIFNFIPEGEHSEVYKILSTHLLESDSLTPEYLKSKNQLEFCCHMLRGTIDPKEPSTYEYVRFIGNFKSLTSVSTSTHNGFEGTIQRTHRPSYEDRVCFVATVRLATPQFIKEMCTVEEPNEEFTSRHSLEWKFLFLDHRAPPIIGYLPFEVLGTSGYDYYHVDDLENLAKCHEHLMQYGKGKSCYYRFLTKGQQWIWLQTHYYITYHQWNSRPEFIVCTHTVVSYAEVRAERRRELGIEESL
chain 2: not shown
Kd: 1800 nM
